According to patent US12692533B2, “Methods and compositions for noninvasive detection of organ transplant rejection” (Georgia Tech Research Corporation, priority 2016, dated 2026):
Square brackets hold non-standard residues; d marks the D form. Ends that are not written are not given here.

Experiments:
murine Granzyme B = target: T1, murine Granzyme B (Mus musculus, UniProt P04187); experiment: In vitro protease cleavage assay with recombinant GzmB; type: biochemical; conditions: substrate conjugated to IONPs, library of 13 candidate substrates
T1 construct: purchased Peprotech
T1 sequence (P04187 21-247): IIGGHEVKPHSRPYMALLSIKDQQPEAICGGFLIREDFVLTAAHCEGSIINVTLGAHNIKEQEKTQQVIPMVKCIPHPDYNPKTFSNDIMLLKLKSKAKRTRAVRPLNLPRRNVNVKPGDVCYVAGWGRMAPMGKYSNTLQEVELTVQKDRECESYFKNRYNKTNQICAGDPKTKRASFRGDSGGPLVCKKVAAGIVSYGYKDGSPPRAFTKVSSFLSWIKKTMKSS
Description: (§1) Synthetic biomarkers (6 nM by NP, 300 nM by peptide) were incubated in PBS+1% bovine serum albumin (BSA; Sigma) at 37° C. with murine Granzyme B (0.2 μM, Peprotech), human thrombin (HaemTech), mouse thrombin (HaemTech), mouse plasmin (HaemTech), Clr (Sigma), Cls (Sigma), Factor D (Sigma), Factor I (Sigma), MASP2 (Biomatik). Sample fluorescence were measured for 60 minutes using Cytation 5 plate reader (Biotek). To optimize GzmB substrate, a library of potential substrates was synthesized by Tufts University Core Facility peptide synthesis service and conjugated to IONPs. Cleavage assays of nanoparticles decorated with these substrates with recombinant GzmB were performed, and data was fitted to compare initial cleavage velocities. To determine Michaelis-Menten constants, cleavage assays with GzmB were performed at different substrate concentrations. To initiate coagulation cascade, citrated plasma was mixed with synthetic biomarkers before addition of calcium chloride (15 mM, Sigma). To initiate complement activation, Control Human Serum (Sigma) was mixed with synthetic biomarkers before addition of Heat Aggregated Gamma Globulin (HAGG; Quidel) per the manufacturer's protocol. After measuring fluorescence for 1 hour, supernatants were collected and measured for formation of MAC complex using Micro Vue CH50 Eq EIA Kit (Quidel).

[1] = system: proteases in the coagulation and complement cascades; experiment: Specificity: cleavage by key recombinant proteases and activated coagulation and complement cascades; type: biochemical; conditions: recombinant proteases; plasma + Ca2+; serum + HAGG; fluorescence
Description: as §1

[2] = system: membrane attack complex (MAC); type: biochemical, Human
Description: as §1

[3] = system: T cells from skin graft mice with BALB/c donor splenocytes; experiment: NP assay sensing alloreactive T cell killing (coculture supernatants); type: cell-based, mouse; conditions: cocultures containing T cells from mice bearing allografts
Description: (§3) To sense transgenic T cell killing, CD8+OT1 T cells were isolated and activated per above protocol. On day 5 post activation, 1x10^6 OT1 T cells were coincubated with 1x10^6 EL4 or EG7-OVA target cells for 2 hours at 37° C. Coculture supernatants were mixed with synthetic biomarkers (2 nM by NP, 100 nM by peptides) and fluorescence were monitored for 1 hour at 37° C. To sense alloreactive T cell killing, on day 7 post-transplant, CD8 T cells were isolated from splenocytes and lymphocytes of skin graft mice. 5×10^5 CD8 T cells from skin graft mice were restimulated with 5×10^5 splenocytes from BALB/c Mice (Charles River) for 6 hours at 37° C. Coculture supernatants were mixed with synthetic biomarkers (2 nM by NP, 100 nM by peptides) and fluorescence were monitored for 2 hours at 37° C.

GzmB [4] = target: T2, GzmB (Mus musculus, UniProt P04187); experiment: Tracking in vivo GzmB cleavage by near infra-red imaging in skin graft mice
T2 construct: cleaved by GzmB secreted by alloreactive T cells; endogenous in cells; host or cells: alloreactive CD8 T cells of C57BL/6 recipient mice bearing BALB/c skin grafts
T2 sequence (P04187 21-247): T1 sequence (P04187 21-247)
Description: (§2) To track cleaved fragments after in vivo GzmB cleavage, on day 7 post-transplant, VT750-labelled synthetic biomarkers (10 nmol by peptides) were administered to skin graft mice. Major organs were excised and imaged with Odyssey CLx Imaging System (LI-COR) while mouse bladders were imaged with IVIS Spectrum CT Imaging System (PerkinElmer) after 90 minutes. All urinalysis experiments were done in paired setup. 4 days before and 7 days after surgeries, skin graft mice were administered with FITC-labelled Synthetic biomarkers (10 nmol by peptides). Urine were collected after 90 minutes by placing mice over 96-well plates. FITC in urine was purified by a magnetic separation assay using Dynabeads (Thermo, 65501) coated with anti-FITC (GeneTex, GTX10257). Fluorescent signals were measured with Cytation 5 Plate Reader (Biotek). Concentrations of FITC were calculated using a free FITC ladder and normalized with urine volume. For CD8 depletion study, mice were given anti-mouse CD8 (clone: 53-6.7, BioXCell) for 3 consecutive days following with booster shots every 3 days after. Flow cytometry analysis of splenocytes and lymphocytes were performed with anti-mouse CD3 (clone: 17A2, Biolegend), anti-mouse CD4 (clone: RM4-5, Biolegend), anti-mouse CD8 (clone: KT15, Serotec) to confirm success of depletion.

GzmB [5] = target: T2, GzmB; experiment: Urinary prediction of acute cellular rejection in skin graft mouse model; type: in vivo, mice
Description: as §2

[6] = in plasma, DLS
Description: DLS measurements of synthetic biomarkers were done in PBS or mouse plasma at RT using Zetasizer Nano ZS (Malvern).

[7] = system: OT1 T cells killing EG7-OVA target cells
Description: as §3

[8] = in vivo

Substance	rate of cleavage by recombinant GzmB (murine Granzyme B)	rate of cleavage by recombinant GzmB (murine Granzyme B; listed as AIEFD|SGc)	activation by proteases in the coagulation and complement cascades [1]	formation of membrane attack complex (MAC) [2]	activation kinetics [3]	full body imaging bladder fluorescent signals (GzmB [4]; allograft vs isograft mice)	GzmB activity (fluorescent signal) in kidney, allograft mice with respect to isograft mice (GzmB [4]; day 7 post-transplant) [fold]	ROC area under the curve (AUC) (GzmB [5]; accepting isografts vs rejecting allografts)	post-graft urine signals compared to pre-graft signals (GzmB [5]; allograft mice, day 7 vs day -4)	post-graft urine signals with respect to pre-graft signals (GzmB [5]; naïve mice, isograft mice, allograft mice depleted of CD8 T cells)	Z-average [6] [nm]	sensing of cytotoxic signal (fluorescence) [7]	correlation of initial velocity of probe activation with secretory GzmB ([7]; coculture supernatant)	tolerability [8]
AIEFDSGc (AIEFDSG[dC])	high rate of cleavage	highest rate of cleavage	–	–	–	–	–	–	–	–	–	–	–	–
synthetic biomarkers: PEG-coated iron oxide nanoparticles conjugated with GzmB peptide substrates carrying a fluorescent reporter (AIEFDSG[dC]; not fully specified; printed as AIEFDSGc; also: conjugated to PEG-coated iron oxide nanoparticle via Cys thiol and SIA, FITC reporter, position not given here)	–	–	not activated	not detected	Increased activation kinetics	only detected fluorescent signals from the bladders of allograft mice	3	0.969	more than 2 fold	did not detect significant elevation	47	amplified cytotoxic signal	strongly correlated	well tolerated
